Patent US20140348838A1 (AbbVie / Abbott, published 2014)
Residue numbers refer to the chain shown, from its start. Each block holds one binder with its values, some of them ahead of it.

What was measured:
[1] = biological target: T1, human IL-1β (human, UniProt P01584 117-269, biotinylated in the ELISA (site not stated)); assay: cell-based or functional assay
[2] = biological target: T2, human IL-1α (human, UniProt P01583 113-271, biotinylated in the ELISA (site not stated)); assay: cell-based or functional assay
T2 sequence: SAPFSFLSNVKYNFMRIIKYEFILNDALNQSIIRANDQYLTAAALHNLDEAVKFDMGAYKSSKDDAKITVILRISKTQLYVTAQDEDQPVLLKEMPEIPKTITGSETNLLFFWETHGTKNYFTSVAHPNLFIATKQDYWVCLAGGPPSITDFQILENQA

[3] = biological target: T2, human IL-1α; assay: SPR (Biacore), DVD-Ig captured, antigen in solution
[4] = biological target: T3, cynomolgus IL-1α (cynomolgus, UniProt P79340 113-271); assay: as above
T3 construct: also called cyno IL-1α; Cyno IL-1α
T3 sequence (looked up): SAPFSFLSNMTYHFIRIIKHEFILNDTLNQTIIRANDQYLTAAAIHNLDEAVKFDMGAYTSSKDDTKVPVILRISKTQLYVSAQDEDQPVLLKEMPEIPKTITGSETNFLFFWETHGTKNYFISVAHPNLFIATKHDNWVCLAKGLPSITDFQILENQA

[5] = biological target: T2, human IL-1α; assay: Biacore (SPR), sequential injections on captured DVD-Ig: IL-1α as 2nd injection, after IL-1β
[6] = biological target: T4, cynomolgus IL-1β (cynomolgus, UniProt P79182 117-268); assay: cell-based or functional assay
T4 sequence (looked up): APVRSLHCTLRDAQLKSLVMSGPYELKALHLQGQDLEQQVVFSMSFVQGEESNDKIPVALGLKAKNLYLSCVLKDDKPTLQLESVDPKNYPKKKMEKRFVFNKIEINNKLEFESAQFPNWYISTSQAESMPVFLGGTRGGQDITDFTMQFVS

[7] = biological target: T3, cynomolgus IL-1α; assay: cell-based or functional assay
[8] = biological target: T1, human IL-1β; assay: SPR (Biacore), DVD-Ig captured, antigen in solution
[9] = biological target: T4, cynomolgus IL-1β; assay: as above
[10] = biological target: T1, human IL-1β; assay: ELISA: DVD-Ig captured on anti-human Fc, biotinylated antigen titrated
Description: (§1) To determine if the anti-IL-1β mAbs bind to human IL-1β, ELISA plates (Nunc, MaxiSorp, Rochester, N.Y.) were incubated overnight at 4° C. with anti-human Fc antibody diluted in Pierce Coat buffer at 2 μg/ml (Jackson Immunoresearch, West Grove, Pa.). Plates were washed five times in washing buffer (PBS containing 0.05% Tween 20), and blocked for 1 hour at 25° C. with 200 μl per well superblock blocking buffer (Thermo scientific, No. 37515). Blocking buffer was removed by tapping plates, and 2 μg/ml of each antibody in PBS containing 10% Superblock, 0.5% Tween-20 was added to the wells at 100 μl/well and incubated at 25° C. for 1 hour. The wells were washed five times in 1×PBST, and 1 μg/ml biotinylated antigen was titrated at 1:6 serial dilutions (for a range of μg to pg in PBS containing 10% Superblock, 0.05% Tween 20). Each dilution of antigen was then added to the plates and incubated for 1 hour at 25° C. […] The wells were washed five times in 1×PBST, and 100 μl of ULTRA-TMB ELISA (Pierce, Rockford, Ill.) were added per well. Following color development the reaction was stopped with 1N HCL and absorbance at 450 nm was measured.
(§2) IL-1β and IL-1α binding by IL-1β/α DVD-Ig binding proteins was assessed by ELISA (assay described above, Example 2.1).

[11] = biological target: T2, human IL-1α; assay: as above
Description: as §1, §2

[12] = biological target: T1, human IL-1β; assay: ELISA: antibody captured on anti-human Fc, biotinylated antigen titrated
Description: as §1

B1: X3-LL-E26.13 DVD-Ig (bispecific antibody, human IgG1, kappa, L234A L235A)
heavy: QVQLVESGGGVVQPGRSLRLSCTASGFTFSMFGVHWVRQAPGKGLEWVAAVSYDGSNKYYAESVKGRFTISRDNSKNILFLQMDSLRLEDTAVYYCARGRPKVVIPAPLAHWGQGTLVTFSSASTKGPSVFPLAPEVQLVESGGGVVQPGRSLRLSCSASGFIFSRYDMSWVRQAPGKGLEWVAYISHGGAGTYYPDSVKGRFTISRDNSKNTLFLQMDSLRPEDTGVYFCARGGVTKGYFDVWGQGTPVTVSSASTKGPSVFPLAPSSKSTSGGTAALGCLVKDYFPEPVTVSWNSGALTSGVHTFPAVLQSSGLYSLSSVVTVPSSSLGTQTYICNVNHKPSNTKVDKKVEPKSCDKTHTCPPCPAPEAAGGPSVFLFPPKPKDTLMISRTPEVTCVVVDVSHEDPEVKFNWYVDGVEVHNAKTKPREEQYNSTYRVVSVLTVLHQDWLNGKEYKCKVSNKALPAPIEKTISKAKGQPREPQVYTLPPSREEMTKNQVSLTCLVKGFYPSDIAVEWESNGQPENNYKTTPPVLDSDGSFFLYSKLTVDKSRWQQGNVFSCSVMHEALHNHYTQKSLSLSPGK
light: DIQMTQSPSSVSASVGDRVTITCRASQGISSWLAWYQQKPGKAPKLLIYEASNLETGVPSRFSGSGSGSDFTLTISSLQPEDFATYYCQQTSSFLLSFGGGTKVEHKRTVAAPSVFIFPPDIQMTQSPSSLSASVGDRVTITCRASGNIHNYLTWYQQTPGKAPKLLIYNAKTLADGVPSRFSGSGSGTDYTFTISSLQPEDIATYYCQHFWSIPYTFGQGTKLQITRTVAAPSVFIFPPSDEQLKSGTASVVCLLNNFYPREAKVQWKVDNALQSGNSQESVTEQDSKDSTYSLSSTLTLSKADYEKHKVYACEVTHQGLSSPVTKSFNRGEC
- Potency (pM): neutralization of IL-1-induced hIL-8 in MRC5 cells [1]: 1470 pM
- Potency (pM): neutralization of IL-1-induced hIL-8 in MRC5 cells [2]: 8.9 pM

B2: E26.13-SS-X3 DVD-Ig (bispecific antibody, human IgG1, kappa, L234A L235A)
heavy: not shown
light: DIQMTQSPSSLSASVGDRVTITCRASGNIHNYLTWYQQTPGKAPKLLIYNAKTLADGVPSRFSGSGSGTDYTFTISSLQPEDIATYYCQHFWSIPYTFGQGTKLQITRTVAAPDIQMTQSPSSVSASVGDRVTITCRASQGISSWLAWYQQKPGKAPKLLIYEASNLETGVPSRFSGSGSGSDFTLTISSLQPEDFATYYCQQTSSFLLSFGGGTKVEHKRTVAAPSVFIFPPSDEQLKSGTASVVCLLNNFYPREAKVQWKVDNALQSGNSQESVTEQDSKDSTYSLSSTLTLSKADYEKHKVYACEVTHQGLSSPVTKSFNRGEC
notes: Dual variable domain immunoglobulin
- Kd [3]: 7.61 pM
- Kd [4]: 4110 pM
- stoichiometry [5]: 1.6

B6: E26.13-LL-X3 DVD-Ig (bispecific antibody, human IgG1, kappa, L234A L235A)
heavy: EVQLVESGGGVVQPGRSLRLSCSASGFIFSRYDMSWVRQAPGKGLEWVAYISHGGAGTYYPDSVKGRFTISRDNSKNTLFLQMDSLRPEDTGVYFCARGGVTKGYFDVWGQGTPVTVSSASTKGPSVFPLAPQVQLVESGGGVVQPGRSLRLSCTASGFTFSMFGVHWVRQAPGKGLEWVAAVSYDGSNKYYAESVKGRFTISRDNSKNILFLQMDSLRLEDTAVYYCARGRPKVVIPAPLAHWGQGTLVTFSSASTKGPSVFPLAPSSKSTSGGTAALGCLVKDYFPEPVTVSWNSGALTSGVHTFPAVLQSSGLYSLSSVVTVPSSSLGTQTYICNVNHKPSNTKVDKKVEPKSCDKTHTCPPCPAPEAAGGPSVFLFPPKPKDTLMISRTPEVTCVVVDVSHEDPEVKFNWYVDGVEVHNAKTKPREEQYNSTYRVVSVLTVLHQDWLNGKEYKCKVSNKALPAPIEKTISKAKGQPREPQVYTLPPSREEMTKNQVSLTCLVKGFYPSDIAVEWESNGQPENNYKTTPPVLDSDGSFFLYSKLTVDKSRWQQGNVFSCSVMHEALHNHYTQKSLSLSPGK
light: DIQMTQSPSSLSASVGDRVTITCRASGNIHNYLTWYQQTPGKAPKLLIYNAKTLADGVPSRFSGSGSGTDYTFTISSLQPEDIATYYCQHFWSIPYTFGQGTKLQITRTVAAPSVFIFPPDIQMTQSPSSVSASVGDRVTITCRASQGISSWLAWYQQKPGKAPKLLIYEASNLETGVPSRFSGSGSGSDFTLTISSLQPEDFATYYCQQTSSFLLSFGGGTKVEHKRTVAAPSVFIFPPSDEQLKSGTASVVCLLNNFYPREAKVQWKVDNALQSGNSQESVTEQDSKDSTYSLSSTLTLSKADYEKHKVYACEVTHQGLSSPVTKSFNRGEC
notes: as for B2
- Potency (pM): neutralization of IL-1-induced hIL-8 in MRC5 cells [2]: 10.2 pM
- Potency (pM): neutralization of IL-1-induced hIL-8 in MRC5 cells [7]: 1050 pM
- Kd [3]: 6.15 pM
- koff [3]: 3.9e-06 s⁻¹
- kon [3]: 646000 M⁻¹ s⁻¹
- Kd [4]: 3240 pM
- koff [4]: 0.00105 s⁻¹
- kon [4]: 315000 M⁻¹ s⁻¹
- EC50 [11]: 5.8 pM

B7: E26.11 (antibody, V domains shown)
VH: EVQLVESGGGVVQPGRSLRLSCSASGFIFSRYDMSWVRQAPGKGLEWVAYISHGGAGTYYPDSVKGRFTISRDNSKNTLFLQMDSLRPEDTAVYYCARGGVYKGYFDVWGQGTPVTVSS
VL: DIQMTQSPSSLSASVGDRVTITCRASGNIHNYLTWYQQTPGKAPKLLIYNAKTLADGVPSRFSGSGSGTDYTFTISSLQPEDIATYYCQHFWSIPYTFGQGTKLQIT
- EC50 [12]: 14 pM

B8: X3-SS-E26.13 DVD-Ig (bispecific antibody, human IgG1, kappa, L234A L235A)
heavy: not shown
light: DIQMTQSPSSVSASVGDRVTITCRASQGISSWLAWYQQKPGKAPKLLIYEASNLETGVPSRFSGSGSGSDFTLTISSLQPEDFATYYCQQTSSFLLSFGGGTKVEHKRTVAAPDIQMTQSPSSLSASVGDRVTITCRASGNIHNYLTWYQQTPGKAPKLLIYNAKTLADGVPSRFSGSGSGTDYTFTISSLQPEDIATYYCQHFWSIPYTFGQGTKLQITRTVAAPSVFIFPPSDEQLKSGTASVVCLLNNFYPREAKVQWKVDNALQSGNSQESVTEQDSKDSTYSLSSTLTLSKADYEKHKVYACEVTHQGLSSPVTKSFNRGEC
notes: as for B2
- EC50 [11]: 4.5 pM

The remaining lines, values ahead:

- Potency (pM): neutralization of IL-1-induced hIL-8 in MRC5 cells [1]: 1.8 pM
- Potency (pM): neutralization of IL-1-induced hIL-8 in MRC5 cells [2]: 25.8 pM
- Potency (pM): neutralization of IL-1-induced hIL-8 in MRC5 cells [6]: 0.6 pM
- Potency (pM): neutralization of IL-1-induced hIL-8 in MRC5 cells [7]: 474 pM
- Kd [8]: 5.03 pM
- koff [8]: 6.81e-06 s⁻¹
- kon [8]: 1.32e+06 M⁻¹ s⁻¹
- Kd [3]: 13.3 pM
- koff [3]: 2.14e-06 s⁻¹
- kon [3]: 162000 M⁻¹ s⁻¹
- Kd [9]: 10.6 pM
- koff [9]: 1.94e-05 s⁻¹
- kon [9]: 1.84e+06 M⁻¹ s⁻¹
- Kd [4]: 3270 pM
- koff [4]: 0.000236 s⁻¹
- kon [4]: 72400 M⁻¹ s⁻¹
- EC50 [10]: 8 pM
- EC50 [11]: 6.2 pM
B3: E26.35-SS-X3 DVD-Ig (bispecific antibody, human IgG1, kappa, L234A L235A)
heavy: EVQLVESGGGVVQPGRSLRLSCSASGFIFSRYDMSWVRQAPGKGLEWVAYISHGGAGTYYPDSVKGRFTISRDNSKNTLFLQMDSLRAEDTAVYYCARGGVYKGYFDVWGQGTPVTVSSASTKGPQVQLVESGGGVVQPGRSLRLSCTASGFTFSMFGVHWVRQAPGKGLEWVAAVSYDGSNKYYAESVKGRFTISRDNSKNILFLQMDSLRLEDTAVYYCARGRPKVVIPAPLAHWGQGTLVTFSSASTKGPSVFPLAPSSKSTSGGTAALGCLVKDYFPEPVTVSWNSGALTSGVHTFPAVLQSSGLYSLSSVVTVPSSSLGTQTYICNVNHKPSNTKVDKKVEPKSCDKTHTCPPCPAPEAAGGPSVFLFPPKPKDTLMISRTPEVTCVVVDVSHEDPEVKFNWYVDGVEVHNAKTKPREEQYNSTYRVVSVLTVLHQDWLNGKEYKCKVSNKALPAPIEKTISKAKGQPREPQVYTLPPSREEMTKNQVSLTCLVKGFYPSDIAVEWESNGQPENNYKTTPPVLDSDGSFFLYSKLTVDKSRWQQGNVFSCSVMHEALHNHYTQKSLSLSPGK
light: B2 light
notes: as for B2

- EC50 [10]: 6.3 pM
- EC50 [11]: 4 pM
B4: E26.35-SS-X3 JM DVD-Ig (bispecific antibody, human IgG1, kappa, L234A L235A)
heavy: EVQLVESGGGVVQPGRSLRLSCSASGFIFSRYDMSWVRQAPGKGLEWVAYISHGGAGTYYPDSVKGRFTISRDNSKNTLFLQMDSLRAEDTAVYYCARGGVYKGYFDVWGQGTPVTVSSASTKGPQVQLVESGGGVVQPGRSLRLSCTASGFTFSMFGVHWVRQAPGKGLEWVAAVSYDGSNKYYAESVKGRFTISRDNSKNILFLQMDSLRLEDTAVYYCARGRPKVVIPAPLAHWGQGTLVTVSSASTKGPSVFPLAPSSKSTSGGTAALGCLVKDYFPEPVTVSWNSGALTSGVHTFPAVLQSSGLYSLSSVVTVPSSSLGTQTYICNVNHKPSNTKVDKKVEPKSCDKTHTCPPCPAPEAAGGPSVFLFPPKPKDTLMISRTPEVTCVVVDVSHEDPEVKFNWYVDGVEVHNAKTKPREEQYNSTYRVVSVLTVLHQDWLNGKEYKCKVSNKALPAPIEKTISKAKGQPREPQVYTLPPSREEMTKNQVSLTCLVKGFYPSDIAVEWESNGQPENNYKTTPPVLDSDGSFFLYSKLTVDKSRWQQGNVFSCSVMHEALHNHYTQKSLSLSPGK
light: B2 light with H219I
notes: Dual variable domain immunoglobulin; X3 is mutated in the J-region (X3 JM)

- Potency (pM): neutralization of IL-1-induced hIL-8 in MRC5 cells [2]: 26.5 pM
- Potency (pM): neutralization of IL-1-induced hIL-8 in MRC5 cells [6]: 17.6 pM
- Potency (pM): neutralization of IL-1-induced hIL-8 in MRC5 cells [7]: 1880 pM
- EC50 [11]: 4.3 pM
B5: E26.13-SS-X3 JM DVD-Ig (bispecific antibody, human IgG1, kappa, L234A L235A)
heavy: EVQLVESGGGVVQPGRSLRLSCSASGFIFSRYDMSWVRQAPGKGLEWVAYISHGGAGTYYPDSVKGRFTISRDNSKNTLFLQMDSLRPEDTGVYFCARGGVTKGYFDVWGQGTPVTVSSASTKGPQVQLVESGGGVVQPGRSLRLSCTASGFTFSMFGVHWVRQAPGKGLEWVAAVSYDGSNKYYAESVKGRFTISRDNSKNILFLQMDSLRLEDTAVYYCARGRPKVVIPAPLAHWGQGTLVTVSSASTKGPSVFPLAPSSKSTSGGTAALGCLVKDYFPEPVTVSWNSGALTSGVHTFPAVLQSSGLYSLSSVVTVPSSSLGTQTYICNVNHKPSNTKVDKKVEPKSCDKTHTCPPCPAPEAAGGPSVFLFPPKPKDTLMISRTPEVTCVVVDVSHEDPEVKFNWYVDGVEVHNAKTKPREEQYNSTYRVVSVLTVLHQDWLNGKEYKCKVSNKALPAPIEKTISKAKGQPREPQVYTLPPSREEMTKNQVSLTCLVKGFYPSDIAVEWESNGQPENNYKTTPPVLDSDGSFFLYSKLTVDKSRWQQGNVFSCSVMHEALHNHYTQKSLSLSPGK
light: B2 light with H219I
notes: as for B4
